# According to article PMC3681696 (Molecular Biology of the Cell, 2013):
# B1: recombinant Rng2p calponin homology domain (domain or fragment)
# chain: MDVNVGLSRLQSQAGAPVGTKGSNTRLAAKQRETLQAYDYLCRVDEAKKWIEECLGTDLGPTSTFEQSLRNGVVLALLVQKFQPDKLIKIFYSNELQFRHSDNINKFLDFIHGIGLPEIFHFELTDIYEGKNLPKVIYCIHALSYFLSMQDLAPPLIKSDENLSFTDEDVSIIVRRLRQSNVILPNFKAL
# Molecular target: purified muscle actin filaments (UniProt P68135 1-377)
binder,measurement,value
B1,Kd,~20 µM
